From US20260209330A1, “S100A7 AS A DIAGNOSTIC MARKER AND THERAPEUTIC TARGET FOR DISORDERS” (Ohio State Innovation Foundation, priority 2022, published 2026)

Tests used:
[1] = breast cancer patients; reported; cited from earlier work
[2] = tested on: MDA-MB-231 cells; assay: 3D-Spheroid invasion assay (3D-Cultrex spheroid invasion kit); assay type: cell-based; conditions: nAb clone 28F8-2 300 ng/μl; recombinant human S100A7 100 ng/ml; vs control IgG or PBS; invaded area on 10th day
Description: (§1) MDA-MB-231 cells were treated with hS100A7 neutralizing antibody (clone 28F8-2; 300 ng/μl) or control IgG or PBS in the presence or absence of recombinant human S100A7 (100 ng/ml) and spheroid invasion assay was performed by using 3D-Cultrex spheroid invasion kit. […] FIG. 9B show the bar diagram representing the invaded area of spheroids. The area between red and blue circles represents the invaded area. […] GAPDH was used as a loading control. S100A7 overexpressing MDA-MB-231 cells (1×10^6) were injected into the female NCG mice. After the onset of palpable tumors, mice were either treated with vehicle control (VC), S100A7 nAb ([…], i.p. route; clone 28F8-2; two times a week) alone or in combination with ASB-14780 (50 mg/kg·bt, oral route; three times a week). […] FIGS. 9F, 9G, and 9H show the analysis of tumor volume, tumor weight, and liver metastasis of control IgG, S100A7 nAb, ASB-14780, and combination-treated. *** is p<0.001; **** is p<0.0001. One way ANOVA and t test were used for calculating statistical significance.
(§2) Trans-well migration assay and 3D-Spheroid invasion assay. MDA-MB-231 cells were treated with hS100A7 neutralizing antibody (clone 28F8-2; 300 ng/μl) or control IgG or PBS in the presence or absence of recombinant human S100A7 (100 ng/ml). […] On the 10th day, the invaded area was calculated by using the image-J plugin.

[3] = tested on: MDA-MB-231 cells; assay: Trans-well migration assay; assay type: cell-based; conditions: nAb clone 28F8-2 300 ng/μl; recombinant human S100A7 100 ng/ml; overnight, transwell chambers
Description: as §1, §2

[4] = tested on: PD-L1; assay: S100A7-induced PD-L1 expression by Western blot; assay type: cell-based; conditions: MDA-MB-231 cells; nAb clone 28F8-2 300 ng/μl; recombinant human S100A7 100 ng/ml; GAPDH loading control
Description: as §1
Western blotting, adipokine array and Immunohistochemistry (IHC). Cell or tissue lysates were analyzed by Western blotting. Briefly, samples were run on NuPAGE 4-12% gradient precast gels (Invitrogen) and probed with primary antibodies (Table 1), followed by secondary antibodies incubation, and were developed. […]

[5] = HFD-induced obesity in wild type female FVB mice; assay type: in vivo, mouse; conditions: FVB mice on HFD; nAb i.p. two times a week, alone or with reboxetine 20 mg/kg·bt i.p. twice a week; vs control IgG treated group
Description: (§3) FIGS. 10C, 10D, 10E, 10F, and 10G show the analysis of body weight, vWAT mass (gm), tumor volume, tumor weight (gm), and Lung metastasis of VC, S100A7 nAb, Reb and combo-treated animals. *P<0.05, ** P<0.01. One way ANOVA was used for calculating statistical significance. Mouse models, obesity tumor growth analyses and flow cytometry. The NCG and wild-type 6 weeks old female FVB mice (6 weeks old) were obtained from the Charles River. S100A7 overexpressing MDA-MB-231 cells (1×10^6) were injected into the 4th mammary fat pad of NCG mice. While Mvt1 cells (1×10^5) were injected into the mammary fat pad of wild type FVB mice fed with HFD. […] Mvt-1 cells (1×10^5) were also injected into the mammary glands of S100A7 floxed (control) and KO mice. Body weights and tumors were measured weekly, and volume was calculated. In the endpoints, animals were sacrificed, and tumors and other organs were excised. All mice were kept in The OSU's animal facility in compliance with the guidelines and protocols approved by the OSU-IACUC. For flow cytometry, freshly prepared single-cell suspensions of spleen samples harvested from non-tumor bearing S100A7 floxed and KO mice were incubated with an Fc receptor blocker followed by staining with different fluorochrome-conjugated antibodies (Table 1). After staining, cells were evaluated by FACS Fortessa using CellQuest software (BD Biosciences)

[6] = tested on: Mvt1 cells; assay: Mvt1-generated syngeneic breast tumor model in HFD-induced obese mice; assay type: in vivo, mouse; conditions: HFD-induced obese FVB mice with Mvt1 tumors; nAb i.p. two times a week, alone or with reboxetine 20 mg/kg·bt i.p. twice a week
Description: as §3

Molecule	depressive symptoms [1]	tolerability [1]	S100A7-mediated invasiveness of spheroid cells (invaded area) [2]	S100A7-mediated migration of TNBC cells [3]	S100A7-induced PD-L1 expression [4]	HFD-induced body weight gain [5]	visceral fat accumulation (vWAT mass) [5]	lung metastasis [6]	tumor growth (tumor volume, tumor weight) [6]
CCOc1ccccc1OC(c1ccccc1)C1CNCCO1 (stereo not drawn) [reboxetine]	reduces	well tolerated	–	–	–	–	–	–	–
S100A7 nAb: novel monoclonal S100A7 neutralizing antibody, hybridoma clone 28F8-2; heavy chain SEQ ID NO: 4, light chain SEQ ID NO: 8 (antibody, Description of sequence: Heavy Chain; Description of sequence: Light Chain) heavy: MRVLILLWLFTAFPGILSDVQLQESGPGLVKPSQSLSLTCTVTGYSITSDYAWNWIRQFPGNKLEWMGYISYSGYTSYNPSLKSRISITRDTSKNQFFLQLNSVTTEDTTTYYCTRGGKGPMDYWGQGTSVTVSSAKTTPPSVYPLAPGSAAQTNSMVTLGCLVKGYFPEPVTVTWNSGSLSSGVHTFPAVLQSDLYTLSSSVTVPSSTWPSETVTCNVAHPASSTKVDKKIVPRDCGCKPCICTVPEVSSVFIFPPKPKDVLTITLTPKVTCVVVDISKDDPEVQFSWFVDDVEVHTAQTQPREEQFNSTFRSVSELPIMHQDWLNGKEFKCRVNSAAFPAPIEKTISKTKGRPKAPQVYTIPPPKEQMAKDKVSLTCMITDFFPEDITVEWQWNGQPAENYKNTQPIMDTDGSYFVYSKLNVQKSNWEAGNTFTCSVLHEGLHNHHTEKSLSHSPGK light: MKSQTQVFVFLLLCVSGAHGSIVMTQTPKFLLVSAGDRVTITCKASQSVSNDVAWYHQKPGQSPKLLIYYASNRYTGVPDRFTGSGYGTDFTFTISTVQAEDLAVYFCQQDYSSPYTFGGGTKLEIKRADAAPTVSIFPPSSEQLTSGGASVVCFLNNFYPKDINVKWKIDGSERQNGVLNSWTDQDSKDSTYSMSSTLTLTKDEYERHNSYTCEATHKTSTSPIVKSFNRNEC	–	–	reduced	inhibits	decreases	significantly inhibited	significantly inhibited	significantly reduced	significantly reduced
